# Reference: the RNAGym collection of RNA variant scans (doi:10.1021/acssynbio.7b00057)
# B1: Pistol ribozyme (parent)
# chain: GGGUCGUUGUUCCAUAAUCGCGUGGAUAUGGCACGCAAGUUUCUACCGGGCACCGUAAAUGUCCGACUGGAGCCGUUCGGGCGGCUAUAAACAGACCUCAGGCCCGAAGCGUGGCGGCACCUGCCGCCGGUGGUAAAAAAGAUCGGAAGAGCACACGUCU
# Variants of: B1
# Test: aptazyme ON/OFF ratio, guanine; higher = stronger switching; co-transcriptional cleavage with and without guanine
row,Variant,aptazyme ON/OFF ratio
1,U7A U8C G9C U10C C12G C13A,1.04
2,U7A U8C G9C U10C C12G C13G,1.12
3,U7A U8C G9C U10C C12G C13U,1.08
4,U7A U8C G9U U10A U11G C12A C13U,1.1
5,U7A U8C G9U U10A U11G C12A C13A,1.08
6,U7A U8C G9U U10A U11G C12A C13G,1.2
7,U7A U8C G9C U10G U11A,1.04
8,U7A U8C G9C U10G U11G,1.06
9,U7A U8C G9C U10G U11C,1.1
10,U7A U8C G9C U11A C13U,1.05
11,U7A U8C G9C U11A C13A,1.05
12,U7A U8C G9C U11A C13G,1.07
13,U7A U8C G9C U10G U11A C12G,1.11
14,U7A U8C G9C U10G U11A C12U,1.04
15,U7A U8C G9C U10G U11A C12A,1.26
16,U7A U8C G9C U10C U11A C13A,1.07
17,U7A U8C G9C U10C U11A C13G,1.08
18,U7A U8C G9C U10C U11A C13U,1.04
19,U7A U8C G9C U10A U11G C12A C13U,1.11
20,U7A U8C G9C U10C U11A C12U C13G,1.01
21,U7A U8C G9C U10C U11A C12U C13A,1.04
22,U7A U8C G9C U10C U11A C12U C13U,1.02
23,U7A U8C G9C U10C U11G C12U C13A,1.09
24,U7A U8C G9C U10C U11G C12U C13U,1.09

row,Variant,aptazyme ON/OFF ratio
1,U7A U8C G9C U10C U11G C12U C13G,1.11
2,U7A U8C G9U U10C,1.55
3,U7A U8C G9U U10A,1.4
4,U7A U8C G9U U10G,3.16
5,U7A U8C G9C U11A C12G C13A,1.09
6,U7A U8C G9C U11A C12G C13G,1.16
7,U7A U8C G9C U11A C12G C13U,1.13
8,U7A U8C G9C U10A U11G C13U,1.09
9,U7A U8C G9C U10A U11G C13G,1.12
10,U7A U8C G9C U10A U11G C13A,1.1
11,U7A U8C G9U U10C U11A C12G C13G,1.22
12,U7A U8C G9U U10C U11A C12G C13A,1.11
13,U7A U8C G9U U10C U11A C12G C13U,1.11
14,U7A U8C G9C U11G C12U C13A,1.17
15,U7A U8C G9C U11G C12U C13U,1.27
16,U7A U8C G9C U11G C12U C13G,1.19
17,U7A U8C G9U U10C C12A,1.27
18,U7A U8C G9U U10C C12U,1.08
19,U7A U8C G9U U10C C12G,1.57
20,U7A U8C G9U U10C U11A C12G,1.13
21,U7A U8C G9U U10C U11A C12A,1.14
22,U7A U8C G9U U10C U11A C12U,1.13
23,U7A U8C G9C U11C C12U C13G,1.09
24,U7A U8C G9C U11C C12U C13A,1.04

row,Variant,aptazyme ON/OFF ratio
1,U7A U8C G9C U11C C12U C13U,1.06
2,U7A U8C G9U U10A U11C,1.01
3,U7A U8C G9U U10A U11G,1.31
4,U7A U8C G9U U10A U11A,1.37
5,U7A U8C G9C U10G U11C C12A C13A,1.05
6,U7A U8C G9C U10G U11C C12A C13G,1.08
7,U7A U8C G9C U10G U11C C12A C13U,1.09
8,U7A U8C G9U U10C U11C C12U,1.06
9,U7A U8C G9U U10C U11C C12A,1.08
10,U7A U8C G9U U10C U11C C12G,1.07
11,U7A U8C G9C U10G C13G,1.09
12,U7A U8C G9C U10G C13A,1.1
13,U7A U8C G9C U10G C13U,1.14
14,U7A U8C G9C U10C U11C C13U,0.981
15,U7A U8C G9C U10C U11C C13A,1.03
16,U7A U8C G9C U10C U11C C13G,1.05
17,U7A U8C G9U U10C U11A C12U C13A,1.13
18,U7A U8C G9U U10C U11A C12U C13U,1.15
19,U7A U8C G9U U10C U11A C12U C13G,1.09
20,U7A U8C G9C U11G C12A C13G,1.31
21,U7A U8C G9C U11G C12A C13U,1.11
22,U7A U8C G9C U11G C12A C13A,1.11
23,U7A U8C G9C U10G U11G C12U C13A,1.07
24,U7A U8C G9C U10G U11G C12U C13U,1.1

row,Variant,aptazyme ON/OFF ratio
1,U7A U8C G9C U10G U11G C12U C13G,1.1
2,U7A U8C G9U C12U,1.33
3,U7A U8C G9U C12A,1.26
4,U7A U8C G9U C12G,1.45
5,U7A U8C G9U U10C U11G C12U C13A,1.15
6,U7A U8C G9U U10C U11G C12U C13U,1.18
7,U7A U8C G9U U10C U11G C12U C13G,1.18
8,U7A U8C G9C U11C C12G C13A,1.07
9,U7A U8C G9C U11C C12G C13G,1.13
10,U7A U8C G9C U11C C12G C13U,1.09
11,U7A U8C G9U U10G C12A,1.53
12,U7A U8C G9C U10G C12A C13U,1.07
13,U7A U8C G9C U10G C12A C13G,1.12
14,U7A U8C G9C U10G C12A C13A,1.06
15,U7A U8C G9C U11C C13U,1.03
16,U7A U8C G9C U11C C13A,1.05
17,U7A U8C G9C U11C C13G,1.04
18,U7A U8C G9U U10A U11C C12A C13G,1.14
19,U7A U8C G9U U10A U11C C12A C13A,1.17
20,U7A U8C G9U U10A U11C C12A C13U,1.23
21,U7A U8C G9U U10A C12U C13G,1.17
22,U7A U8C G9U U10A C12U C13A,1.29
23,U7A U8C G9U U10A C12U C13U,1.42
24,U7A U8C G9U C13G,1.03

row,Variant,aptazyme ON/OFF ratio
1,U7A U8C G9U C13U,1.23
2,U7A U8C G9U C13A,1.27
3,U7A U8C G9C U10G U11A C13G,1.1
4,U7A U8C G9C U10G U11A C13A,1.05
5,U7A U8C G9C U10G U11A C13U,1.02
6,U7A U8C G9U U10A C12U,1.18
7,U7A U8C G9U U10A C12A,1.25
8,U7A U8C G9U U10A C12G,1.23
9,U7A U8C G9U C12U C13G,1.12
10,U7A U8C G9U C12U C13U,1.39
11,U7A U8C G9U C12U C13A,1.22
12,U7A U8C G9U U10A U11C C12U C13U,1.18
13,U7A U8C G9U U10A U11C C12U C13A,1.1
14,U7A U8C G9U U10A U11C C12U C13G,1.12
15,U7A U8C G9U U10C U11C C12U C13A,1.05
16,U7A U8C G9U U10C U11C C12U C13U,1.1
17,U7A U8C G9U U10C U11C C12U C13G,1.08
18,U7A U8C G9U U10A C12A C13A,1.12
19,U7A U8C G9U U10A C12A C13U,1.18
20,U7A U8C G9U U10A C12A C13G,1.15
21,U7A U8C G9C U10C C12U,1.04
22,U7A U8C G9C U10C C12A,1.03
23,U7A U8C G9C U10C C12G,1.03
24,U7A U8C G9C U10G U11C C12U C13A,1.12

row,Variant,aptazyme ON/OFF ratio
1,U7A U8C G9C U10G U11C C12U C13G,1.16
2,U7A U8C G9C U10G U11C C12U C13U,1.11
3,U7A U8C G9C U10C U11C C12U,0.94
4,U7A U8C G9C U10C U11C C12A,1.05
5,U7A U8C G9C U10C U11C C12G,1.03
6,U7A U8C G9C U10C C13G,1.07
7,U7A U8C G9C U10C C13A,1.06
8,U7A U8C G9C U10C C13U,1.06
9,U7A U8C G9C U10C U11A C12U,1.03
10,U7A U8C G9C U10C U11A C12G,1.02
11,U7A U8C G9C U10C U11A C12A,1.07
12,U7A U8C G9U U10C C12G C13A,1.13
13,U7A U8C G9U U10C C12G C13U,1.51
14,U7A U8C G9U U10C C12G C13G,1.33
15,U7A U8C G9U U10C U11C C13A,1.01
16,U7A U8C G9U U10C U11C C13G,1.02
17,U7A U8C G9U U10C U11C C13U,1.03
18,U7A U8C G9C U10C U11A C12A C13A,1.01
19,U7A U8C G9C U10C U11A C12A C13G,1.06
20,U7A U8C G9C U10C U11A C12A C13U,1.03
21,U7A U8C G9C U10C C12A C13G,1.13
22,U7A U8C G9C U10C C12A C13A,1.03
23,U7A U8C G9C U10C C12A C13U,0.999
24,U7A U8C G9U U10A U11A C12G C13U,1.34

row,Variant,aptazyme ON/OFF ratio
1,U7A U8C G9U U10A U11A C12G C13G,1.2
2,U7A U8C G9U U10A U11A C12G C13A,1.15
3,U7A U8C G9C U11C C12A C13U,1.04
4,U7A U8C G9C U11C C12A C13A,1.06
5,U7A U8C G9C U11C C12A C13G,1.04
6,U7A U8C G9C U10G U11C C12G C13G,1.18
7,U7A U8C G9C U10G U11C C12G C13A,1.18
8,U7A U8C G9C U10G U11C C12G C13U,1.12
9,U7A U8C G9C U10G U11C C13U,1.1
10,U7A U8C G9C U10G U11C C13A,1.21
11,U7A U8C G9C U10G U11C C13G,1.33
12,U7A U8C G9U U10A U11G C13A,1.17
13,U7A U8C G9U U10A U11G C13U,1.23
14,U7A U8C G9U U10A U11G C13G,1.1
15,U7A U8C G9C U10G U11A C12U C13A,1.07
16,U7A U8C G9C U10G U11A C12U C13G,1.01
17,U7A U8C G9C U10G U11A C12U C13U,1.03
18,U7A U8C G9U U10A U11A C12U,1.12
19,U7A U8C G9U U10A U11A C12G,1.27
20,U7A U8C G9U U10A U11A C12A,1.28
21,U7A U8C G9U U10A U11G C12G,1.12
22,U7A U8C G9U U10A U11G C12A,1.07
23,U7A U8C G9U U10A U11G C12U,1.35
